The values that follow come from article PMC7280789, “Isotype Switching Converts Anti-CD40 Antagonism to Agonism to Elicit Potent Antitumor Activity” (Cancer Cell, 2020).

For assay [1], the target named is T1, full-length hCD40 expressed on CHO-k1 cells (Homo sapiens, UniProt P25942).
T1 construct: CD40, human; results call it the full-length CD40 molecule; methods: wild-type full-length extracellular (EC) domain (CRD1-4) cloned into pCIpuro that contains the CD40 transmembrane domain for membrane anchoring; also called full-length CD40 molecule; CRD1-4; source: CHO-k1, stably transfected (pCIpuro), on cells
The assay can be described thus: flow cytometry on cells; CHO-k1 cells expressing full-length hCD40 or truncated variants CRD2-4 or CRD3-4 incubated with 10 μg/mL anti-CD40 mAb; bound mAb detected by anti-human Fc-PE. Conditions: one partner purified.

The target of assay [2] is T2, hCD40 truncated variant CRD2-4 expressed on CHO-k1 cells (Homo sapiens, UniProt P25942, point mutant).
T2 construct: CD40, human, truncated variant CRD2-4 (lacks CRD1), with the CD40 transmembrane domain of the vector; source: CHO-k1, stably transfected (pCIpuro), on cells
Described as above. Conditions: one partner purified.

For assay [3], the target named is T3, hCD40 truncated variant CRD3-4 expressed on CHO-k1 cells (Homo sapiens, UniProt P25942, point mutant).
T3 construct: CD40, human, truncated variant CRD3-4 (lacks CRD1 and CRD2), with the CD40 transmembrane domain of the vector; source: CHO-k1, stably transfected (pCIpuro), on cells
The assay is described as above. The following applies: one partner purified.

The target in assay [4] is T4, His-tagged recombinant soluble full-length extracellular domain (EC) of hCD40 (Homo sapiens, UniProt P25942).
T4 construct: CD40, human, wild-type full-length extracellular (EC) domain (CRD1-4); Used in the western blot and, as 'hCD40 EC domain', in the SEC/SEC-SAXS complex with 341G2 F(ab); also called hCD40 EC domain; CD40EC; source: FreeStyle 293F, transfected (pcDNA3.1), purified from supernatant (Ni-NTA)
As to the kind of experiment: far-Western, overlay or dot blot; western blot: His-tagged recombinant CD40 proteins run on 18% polyacrylamide gels, transferred to nitrocellulose, incubated with the anti-CD40 mAb at 4°C overnight, detected with goat anti-human IgG-HRP. The following applies: both partners purified.

The target of assay [5] is T4, His-tagged recombinant soluble …. The assay can be described thus: SEC; 341G2 F(ab) and hCD40 EC domain mixed at a 1:1 molar ratio for 1 hour, complex purified by SEC; then SEC-SAXS on Superdex 200 increase 3.2/200 in PBS, 20°C. Conditions: both partners purified. In general terms: In gel filtration, larger molecules generally elute earlier.
Another assay has as its target T5, CD40 on Ramos cells (Homo sapiens (Ramos cells), UniProt P25942).
T5 construct: CD40 on the surface of Ramos cells; also called CD40-expressing Ramos cells; source: endogenous, on Ramos cells
As to the kind of experiment: flow cytometry on cells; Ramos cells incubated with a fixed concentration of CD40L and various concentrations of anti-CD40 mAbs; remaining bound CD40L detected by anti-FLAG-APC. The following applies: one partner purified. Background: A flow cytometer gives signals particle by particle.

For assay [6], the target named is T6, hCD40 (immobilised for SPR) (Homo sapiens, UniProt P25942).
T6 construct: CD40, human
The assay can be described thus: SPR; Biacore T100; hCD40 immobilised on a CM5 chip by amine coupling; mAbs injected at 250, 50, 10, 2, 0.4 and 0 nM in HBS-EP+, 30 μL/min, 300 s association, 300 s dissociation; 1:1 Binding model. The following applies: both partners purified. In general terms: Surface plasmon resonance follows binding to a sensor surface in real time, without labels.

T4 sequence (P25942 21-193): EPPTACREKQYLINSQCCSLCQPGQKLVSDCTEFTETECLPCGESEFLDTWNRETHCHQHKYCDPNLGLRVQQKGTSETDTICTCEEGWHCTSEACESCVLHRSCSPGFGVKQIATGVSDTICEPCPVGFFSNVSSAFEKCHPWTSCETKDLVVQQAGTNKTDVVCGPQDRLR
T5 sequence (P25942 21-277): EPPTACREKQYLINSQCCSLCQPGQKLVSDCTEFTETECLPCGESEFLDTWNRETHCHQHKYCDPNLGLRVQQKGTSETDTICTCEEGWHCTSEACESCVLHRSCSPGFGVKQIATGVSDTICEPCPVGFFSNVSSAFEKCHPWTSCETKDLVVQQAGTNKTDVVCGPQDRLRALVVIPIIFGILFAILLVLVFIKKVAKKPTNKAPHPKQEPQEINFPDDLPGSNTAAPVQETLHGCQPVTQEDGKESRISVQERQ
T2 sequence (P25942 whole entry, looked up, change not shown, the tested form may be a part): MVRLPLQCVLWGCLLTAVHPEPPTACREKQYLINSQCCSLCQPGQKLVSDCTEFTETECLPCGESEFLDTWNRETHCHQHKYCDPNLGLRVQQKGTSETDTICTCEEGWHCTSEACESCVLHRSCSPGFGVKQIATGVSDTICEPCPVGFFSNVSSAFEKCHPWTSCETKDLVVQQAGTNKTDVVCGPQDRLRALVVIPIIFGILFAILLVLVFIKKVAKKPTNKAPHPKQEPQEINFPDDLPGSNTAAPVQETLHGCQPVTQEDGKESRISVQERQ
T1 sequence (P25942 whole entry, looked up, the tested form may be a part): as the sequence (P25942 whole entry, looked up, change not shown, the tested form may be a part) above
T3 sequence (P25942 whole entry, looked up, change not shown, the tested form may be a part): as above
T6 sequence (P25942 21-277): as the sequence (P25942 21-277) above

B1: 341G2 (anti-CD40 mAb; isotype not stated for these experiments) (antibody, V domains shown)
VH: QVQLQQSGPGLVKPSQTLSLTCAISGDSVSSNSATWNWIRQSPSRDLEWLGRTYYRSKWYRDYVGSVKSRIIINPDTSNNQFSLQLNSVTPEDTAIYYCTRAQWLGGDYPYYYSMDVWGQGTTVTVSS
VL: EIVLTQSPATLSLSPGERATLSCRASQSVSSYLAWYQQKPGQAPRLLIYDASNRATGIPARFSGSGSGTDFTLTISSLEPEDFAVYYCQQRSNTFGPGTKVDIK
notes: 341G2 heavy chain; 341G2 light chain; also called bleselumab; source: produced either from hybridoma cells or by transient expression in CHO cells, purified on protein A columns; copies: 2 + 2
As to B1, the binding result in assay [1] is given as “binds”; in assay [2], “no binding (tested: 10 μg/mL)”; in assay [3], “no binding (tested: 10 μg/mL)”; in assay [4], “binds”.

B2: 341G2 F(ab) (Fab, V domains shown)
VH: QVQLQQSGPGLVKPSQTLSLTCAISGDSVSSNSATWNWIRQSPSRDLEWLGRTYYRSKWYRDYVGSVKSRIIINPDTSNNQFSLQLNSVTPEDTAIYYCTRAQWLGGDYPYYYSMDVWGQGTTVTVSS
VL: EIVLTQSPATLSLSPGERATLSCRASQSVSSYLAWYQQKPGQAPRLLIYDASNRATGIPARFSGSGSGTDFTLTISSLEPEDFAVYYCQQRSNTFGPGTKVDIK
notes: may stand in the SASBDB entry of the CD40-341G2 F(ab) complex; may stand in SASBDB SASDHN8; also called F(ab) fragment of 341G2 hIgG1; source: digestion of 341G2 hIgG1 with papain-agarose, protein A depletion of IgG1 and Fc, purified by SEC
Regarding B2, the binding result in assay [5] was “binds”.

B3: 341G2 hIgG1 (antibody, V domains shown)
VH: QVQLQQSGPGLVKPSQTLSLTCAISGDSVSSNSATWNWIRQSPSRDLEWLGRTYYRSKWYRDYVGSVKSRIIINPDTSNNQFSLQLNSVTPEDTAIYYCTRAQWLGGDYPYYYSMDVWGQGTTVTVSS
VL: EIVLTQSPATLSLSPGERATLSCRASQSVSSYLAWYQQKPGQAPRLLIYDASNRATGIPARFSGSGSGTDFTLTISSLEPEDFAVYYCQQRSNTFGPGTKVDIK
notes: 341G2 heavy chain variable domain; human IgG1 heavy chain constant region (pEE6.4 vector encoding the isotype); may stand in SASBDB SASDHN8; IgG1; also called 341G2 h1; hIgG1 variant of 341G2; source: produced either from hybridoma cells or by transient expression in CHO cells, purified on protein A columns; copies: 2 + 2
For B3, the binding result with CD40 on Ramos cells is on record as “binds”.

B4: 341G2 hIgG4 (parental 341G2) (antibody, V domains shown)
VH: QVQLQQSGPGLVKPSQTLSLTCAISGDSVSSNSATWNWIRQSPSRDLEWLGRTYYRSKWYRDYVGSVKSRIIINPDTSNNQFSLQLNSVTPEDTAIYYCTRAQWLGGDYPYYYSMDVWGQGTTVTVSS
VL: EIVLTQSPATLSLSPGERATLSCRASQSVSSYLAWYQQKPGQAPRLLIYDASNRATGIPARFSGSGSGTDFTLTISSLEPEDFAVYYCQQRSNTFGPGTKVDIK
notes: 341G2 heavy chain variable domain; human IgG4 heavy chain constant region (pEE6.4 vector encoding the isotype); may stand in SASBDB SASDHN8; IgG4; also called 341G2 h4; bleselumab; source: produced either from hybridoma cells or by transient expression in CHO cells, purified on protein A columns; copies: 2 + 2
Take B4: the binding result (with CD40 on Ramos cells; in assay [6]) was “binds” throughout.
